Legend:
Assay in all cases: MST
XPA DBD F112C = XPA DBD F112C (Homo sapiens, UniProt P23025 98-239, F112C)
XPA DBD D114Y = XPA DBD D114Y (Homo sapiens, UniProt P23025 98-239, D114Y)
XPA DBD R130I = XPA DBD R130I (Homo sapiens, UniProt P23025 98-239, R130I)
XPA DBD M113I = XPA DBD M113I (Homo sapiens, UniProt P23025 98-239, M113I)
XPA DBD WT = XPA DBD WT (Homo sapiens, UniProt P23025 98-239)
XPA DBD Y148D = XPA DBD Y148D (Homo sapiens, UniProt P23025 98-239, Y148D)
Chain of XPA DBD Y148D (P23025 98-239 Y148D): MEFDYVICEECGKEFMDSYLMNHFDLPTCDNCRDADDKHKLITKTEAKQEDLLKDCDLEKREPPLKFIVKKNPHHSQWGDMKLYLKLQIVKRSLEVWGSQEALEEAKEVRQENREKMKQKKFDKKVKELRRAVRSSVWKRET

Chain of XPA DBD M113I (P23025 98-239 M113I): as the sequence (P23025 98-239 Y148D) above, with M16I, D51Y counted along it
Chain of XPA DBD F112C (P23025 98-239 F112C): as the sequence (P23025 98-239 Y148D) above, with F15C, D51Y counted along it
Chain of XPA DBD D114Y (P23025 98-239 D114Y): as the sequence (P23025 98-239 Y148D) above, with D17Y, D51Y counted along it
Chain of XPA DBD WT (P23025 98-239): as the sequence (P23025 98-239 Y148D) above, with D51Y counted along it
Chain of XPA DBD R130I (P23025 98-239 R130I): as the sequence (P23025 98-239 Y148D) above, with R33I, D51Y counted along it

Question: Which Kd (XPA DBD F112C) does the source give for TTTTGCGGCCGCTTTTGCGGCCGC (structured_DNA) [NER junction mimic hairpin, 8 bp with 4 nt overhang] here?
Answer: 9.2 ± 2.2 µM

Question: What about the Kd (XPA DBD D114Y) of the same binder?
Answer: 8.8 ± 1.7 µM

Question: And the Kd (XPA DBD R130I)?
Answer: 38 ± 22 µM

Question: What about the Kd (XPA DBD M113I) of the same binder?
Answer: 12 ± 1.9 µM

Question: And the Kd (XPA DBD WT)?
Answer: 7.7 ± 3.7 µM

Question: Does TTTTGCGGCCGCTTTTGCGGCCGC (structured_DNA) [NER junction mimic hairpin, 8 bp with 4 nt overhang] bind (XPA DBD Y148D)?
Answer: no binding
